B1: Nanobody Sim8619 (rank 1) with an R102A mutation (VHH)
VHH: QVQLQESGGGLVQAGGSLRLSCAASGSIFYIRGMGWYRQAPGKERELVAGIDVGAITYYADSVKGRFTISRDNAKNTVYLQMNSLKPEDTAVYYCAVWAYTAAGYTTVYAYWGQGTQVTVSS
notes: as the nanobody of m5 (Sim8619); the ROSA cell assay is told only for Fc fusions, nanobody variants are told as monomers from E. coli; also called R102A mutant; Sim8619 R102A
B2: Nanobody Sim8619 (rank 1), monomeric (monovalent format) (VHH)
VHH: B1 VHH with A102R
notes: source: E. coli BL21-DE3 (pET-26b), purified (protein A, Ni-NTA); not shown: V5, C-terminal, kept
B3: MAS-related GPR family member X2 (MRGPRX2), endogenous on ROSA mast cells (receptor, human (endogenous in ROSA), UniProt Q96LB1 1-330, looked up)
chain: MDPTTPAWGTESTTVNGNDQALLLLCGKETLIPVFLILFIALVGLVGNGFVLWLLGFRMRRNAFSVYVLSLAGADFLFLCFQIINCLVYLSNFFCSISINFPSFFTTVMTCAYLAGLSMLSTVSTERCLSVLWPIWYRCRRPRHLSAVVCVLLWALSLLLSILEGKFCGFLFSDGDSGWCQTFDFITAAWLIFLFMVLCGSSLALLVRILCGSRGLPLTRLYLTILLTVLVFLLCGLPFGIQWFLILWIWKDSDVLFCHIHPVSVVLSSLNSSANPIIYFFVGSFRKQWRLQQPILKLALQRALQDIAEVDHSEGCFRQGTPEMSRSSLV
notes: MAS-related GPR family member X2 (MRGPRX2), a GPCR, endogenously expressed at high levels on the ROSA mast cell line; source: endogenous, on ROSA mast cells (immortalized mast cell line)
B4: human N-terminal FLAG-tagged MRGPRX2, on transfected HEK293T cells (receptor, UniProt Q96LB1 1-330, looked up)
chain: B3 chain
notes: MRGPRX2, human, N-terminal FLAG-tagged, in a pcDNA3.1 expression vector; also called FLAG-MRGPRX2; wild type MRGPRX2; source: HEK293T, transiently transfected (pcDNA3.1), on cells; not shown: FLAG, N-terminal, kept
B5: Nanobody Sim9877 (rank 5), monomeric (monovalent format) (VHH)
VHH: QVQLQESGGGLVQAGGSLRLSCAASGYISSFPVMGWYRQAPGKERELVAAIGSGGITYYADSVKGRFTISRDNAKNTVYLQMNSLKPEDTAVYYCAVAGYNIGSYYYWGQGTQVTVSS
notes: as for B2
B6: Nanobody Sim4784 (rank 7), monomeric (monovalent format) (VHH)
VHH: QVQLQESGGGLVQAGGSLRLSCAASGTISPPTYMGWYRQAPGKERELVASIGAGSNTNYADSVKGRFTISRDNAKNTVYLQMNSLKPEDTAVYYCAAIFGRLWYHLYWGQGTQVTVSS
notes: as for B2

Conditions in all cases: one partner purified
The target in assay [1] is B3. The assay can be described thus: flow cytometry on cells; dose response of nanobody on ROSA mast cells (100,000 cells per well), 30 min at 4 °C; anti-human IgG Fc-AF488; MFI; for Kd the non-specific signal was the MFI with Nb 60. On the technique in general: Flow cytometry measures light scatter and fluorescence of single cells or particles in a stream.
Assay [2] deals with B4. The assay can be described thus: flow cytometry on cells; monomeric nanobody or variant with V5 tag, 1-2 h at 4 °C, on HEK293T cells transfected with FLAG-MRGPRX2, FLAG-MC4R, FLAG-CXCR3 or empty vector; HBS + 0.1% BSA + 2 mM calcium; anti-V5-APC.
Assay [3] deals with T1, Nanobody Sim8619 (rank 1), human IgG1 Fc fusion.
T1 construct: (GGS)3 linker between the nanobody and the Fc; cloned into pFUSE-CHIg-hG1 with H435A in the Fc; also called Nb Sim 8619; source: Expi293F, transiently transfected, purified (protein A); not shown: Fc (human IgG1, H435A), C-terminal, kept
Put plainly: flow cytometry on cells; dose response of nanobody on ROSA mast cells (100,000 cells per well), 30 min at 4 °C; anti-human IgG Fc-AF488; MFI; for Kd the non-specific signal was the MFI with Nb 60.

Assay [4] deals with T2, Nanobody Sim4784 (rank 7), human IgG1 Fc fusion.
T2 construct: (GGS)3 linker between the nanobody and the Fc; cloned into pFUSE-CHIg-hG1 with H435A in the Fc; source: Expi293F, transiently transfected, purified (protein A); not shown: Fc (human IgG1, H435A), C-terminal, kept
Described as above.

The target of assay [5] is T3, Nanobody Sim9877 (rank 5), human IgG1 Fc fusion.
T3 construct: (GGS)3 linker between the nanobody and the Fc; cloned into pFUSE-CHIg-hG1 with H435A in the Fc; also called Nb Sim9877; source: Expi293F, transiently transfected, purified (protein A); not shown: Fc (human IgG1, H435A), C-terminal, kept
The assay is described as above.

The target of assay [6] is T1, Nanobody Sim8619 (rank 1), human IgG1 …. The assay can be described thus: flow cytometry on cells; nanobody-Fc at the indicated concentrations, 1 h at 4 °C, on HEK293T cells transfected with FLAG-MRGPRX2, MRGPRX2 E164A D184A or empty vector; HBS + 2% FBS + 0.05% BSA; anti-human Fc-AF647; non-specific signal from empty-vector cells.
Assay [7] addresses T2, Nanobody Sim4784 (rank 7), human IgG1 …. The description is as above.
The target in assay [8] is T3, Nanobody Sim9877 (rank 5), human IgG1 …. The description is as above.
Assay [9] deals with T4, FLAG-MC4R, on transfected HEK293T cells (Homo sapiens (Human)., UniProt P32245).
T4 construct: source: HEK293T, transiently transfected, on cells
The assay can be described thus: flow cytometry on cells; monomeric nanobody or variant with V5 tag, 1-2 h at 4 °C, on HEK293T cells transfected with FLAG-MRGPRX2, FLAG-MC4R, FLAG-CXCR3 or empty vector; HBS + 0.1% BSA + 2 mM calcium; anti-V5-APC.

The results in this text go back to article PMC13315262, “In silico discovery of nanobody binders to a G-protein coupled receptor using AlphaFold-Multimer” (Nature Communications, 2026).

Residue numbers refer to the chain shown, from its start. In names and notes the source's numbering stands.

T4 sequence (P32245 whole entry): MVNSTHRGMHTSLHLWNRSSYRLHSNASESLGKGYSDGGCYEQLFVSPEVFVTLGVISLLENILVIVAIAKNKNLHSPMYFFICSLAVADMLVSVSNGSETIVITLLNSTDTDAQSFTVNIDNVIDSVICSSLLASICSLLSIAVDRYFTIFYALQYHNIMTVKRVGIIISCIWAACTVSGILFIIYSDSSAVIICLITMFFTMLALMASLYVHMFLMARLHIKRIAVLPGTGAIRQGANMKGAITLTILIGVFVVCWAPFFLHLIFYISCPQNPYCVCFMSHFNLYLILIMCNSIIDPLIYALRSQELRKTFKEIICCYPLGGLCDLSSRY

Usually EC50 stands for the concentration at which the effect is half-maximal. A high value points to weaker potency. The molecule B1 had an EC50 in assay [1] of 210 nM.

Regarding B2, in [2], the binding result was “binds”.

By Kd is commonly meant the free concentration of one partner at which half of the binding sites on the other are occupied at equilibrium, for simple one-to-one binding. B3: the Kd in assay [3] was 100 nM; in assay [4], 50 nM; in [5], 20 nM.

In the case of B4, the values for the dissociation constant Kd in assay [6], in assay [7] and in assay [8] were 200 nM, 80 nM and 160 nM, respectively.

Turning to B5, the binding result in [2] was “binds”.

For B6, the binding result in assay [2] and in assay [9] was “binds” in each case.
